Where “and” joins values, the source holds several entries; their conditions need not be identical. Equal values may be shown once. Ends that are not written are not given here.
Experiments:
[1] = test system: Las17 12mer peptides / GST-Sla1 SH3 domains; assay: Peptide spot array (Celluspot) of Las17 12mers probed with GST-Sla1 SH3 domains; format: binding, Saccharomyces cerevisiae; settings: GST-Sla1 SH3 domain on 12mer array, 2-residue offset, anti-GST HRP, chemiluminescence
Experimental: A Purified individual GST-tagged Sla1 SH3 domains were used to probe a Celluspot array consisting of a series of 12 amino acid peptides starting with residue 181, and subsequent peptides starting at two amino acid intervals, up to amino acid 540. Binding of GST-Sla1 SH3 to the array was identified by further probing of HRP-tagged anti-GST and subsequent visualisation using chemiluminescence. […] Error bars are standard error of mean.
They were incubated with GST fused SH3 domains of Sla1 or with GST alone, as described in ref.[57]. Membranes were probed with HRP tagged anti-GST, and the presence of SH3-GST fusion protein was detected with ECL chemiluminescent detection solution (Thermo Fisher Scientific).

[2] = test system: Las17-Arp2/3 mediated actin polymerisation; settings: 15 nM Las17, 1 µM Sla1 SH3 domains, ref [13]; cited from earlier work
Excerpt: In Sla1 the first two SH3 domains are immediately juxtaposed with no linker. There are then 236 residues before the third SH3 domain (Fig. 1A).

[3] = test system: Las17-GFP and Arc15-mCherry; assay: Dual-reporter lifetimes, Las17-GFP and Arc15-mCherry co-localisation; format: cell-based, Saccharomyces cerevisiae; parameters: lifetime, GFP alone / lifetime, GFP and RFP / lifetime, RFP: unit not given here; settings: sheet Fig9E, individual endocytic patches, one per cell
Experimental: A size bar for each set of kymographs is shown on the upper right of each set. For (A) and (C) size bar is 100 nm and for B is 200 nm. Error bars are standard deviation. […] The site of interest is labelled in the first two time panels with a white arrow. Exposure 0.5 sec with 1 second time lapse. 120 s recorded. […] Error bars are standard deviation.
Individual spots were analysed for lifetimes and behaviours.
Yeast strains used in this study are listed in Supplementary table 2 and plasmids used in Supplementary table 1. Unless stated otherwise, cells were grown with rotary shaking at 30 °C in liquid YPD medium (1% yeast extract, 2% Bacto-peptone, 2% glucose supplemented with 40 μg/ml adenine) or in synthetic medium (0.67% yeast nitrogen base, 2% glucose) with appropriate supplements. […] DNA cassettes carrying mutations for integration were transformed into KAY1801. Mutant colonies were counter-selected on minimal medium, containing 0.005% uracil and 0.1% 5’-Fluoroorotic Acid (5-FOA; Melford laboratories). Allele exchange, in growing Ura3^-, 5-FOA resistant colonies, was confirmed by PCR and sequencing.
For live-cell imaging, cells expressing tagged proteins were visualised after growing to early log phase. Analysis was carried out at room temperature (22 °C). […] Images were taken simultaneously on separate scientific complementary metal oxide semiconductor (sCMOS) cameras (30 msec exposure). Seven 250 nm sections were acquired every 0.5 sec (241 time points). The stacks were then deconvolved and processed, using SoftWorx. Protein localisation and lifetime was analysed from those projections. Fiji software was used to assemble movies and kymographs, to track and record behaviour of individual spots. Graphs show mean ± SD. […] Where appropriate data was tested for normal distribution using Graphpad Prism software, and then subjected to the appropriate test as described in the methods for each experiment type.

[4] = molecular target: T1, Las17 PPR-N fragment (residues 300-422), wild type (S. cerevisiae, UniProt Q12446 300-422); assay: BLI; Octet R2 (Sartorius); Octet NTA Biosensors or Octet GST Biosensors, which partner was loaded is not stated; repeated three times; the constant of SH3#1-3 is called apparent; settings: both partners purified
T1 construct: Las17 (yeast WASP family protein, Las17/Bee1), S. cerevisiae, residues 300-422 (N-terminal half of the polyproline region, PPR-N); also called Las17(300-422); Las17 300-422; source: E. coli, purified (GST fusion on glutathione Sepharose, cleaved with PreScission Protease; a His-tagged form purified on a nickel column was also made)

[5] = molecular target: T2, Sla1 SH3#1-2 tandem domains (aa 5-131) (S. cerevisiae, UniProt P32790 5-131, 15N-labelled (NMR only)); assay: NMR titration; 15N-labelled Sla1 SH3 domains, 1H-15N HSQC; concentrated peptide stocks in the same buffer and pH added stepwise (0 to 8 equivalents shown); shift changes fitted to the standard quadratic equation; settings: both partners purified
T2 construct: Sla1, S. cerevisiae, first two SH3 domains (juxtaposed, no linker), residues 5-131; also called Sla1 SH3 domains 1 and 2; tandem SH3#1&2 domain; source: E. coli, purified (GST fusion, cleaved with Prescission protease; His-tagged Sla1-SH3 domains were also made); 15N- or 15N,13C-labelled for NMR
T2 sequence (looked up): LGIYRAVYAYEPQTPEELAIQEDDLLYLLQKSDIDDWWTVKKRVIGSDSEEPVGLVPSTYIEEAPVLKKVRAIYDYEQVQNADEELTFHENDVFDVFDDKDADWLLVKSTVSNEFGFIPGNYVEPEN

[6] = Liposome co-sedimentation assay; format: binding; parameters: unit: %
Experimental: Liposome binding assays were carried out as described previously. To prepare liposomes 11 μl of a 25 mg/ml solution of Folch fraction-1 was dried under a nitrogen stream. They were washed in chloroform, dried under nitrogen, and further washed with diethyl ether to remove all traces of chloroform before being dried again. The dried lipid mixture was resuspended in 200 µl of buffer B (20 mM HEPES pH 7.2, 100 mM KCl, 2 mM MgCl2, 1 mM DTT) at 37 °C for 30 min with regular gentle agitation. Liposomes were then extruded 11 times through polycarbonate filters with 1.0 μm pores. For liposome binding assays 20 μM Sla1 (pre-spun at 313,000 × g for 15 min) was mixed with 20 μl liposomes in buffer B, (final volume 50 µl) and incubated at room temperature for 15 min. Liposomes and bound protein were pelleted by centrifugation at 250,000 × g for 15 min, and supernatants and pellets carefully separated. The pellets were resuspended in 50 µl buffer B and samples were analysed by SDS-PAGE. The proportion of protein in each sample was determined by densitometry of the Coomassie stained gels using a BioRad GelDoc. Replicate experiments were carried out with protein from different preparations. To normalise the data the amount of protein in the supernatant and pellet of each sample was added together to give a value for 100%, and then the % in either the supernatant or pellet alone was calculated. When liposomes were included in the pyrene actin assay they were prepared as described for liposome binding assays, but the dried lipid mixture was resuspended in 5×KME in place of liposome buffer. This was then used as a source of KME in the pyrene actin assay as well as a source of lipid. Mean ± SD is shown n = 6. Sîdák’s multiple comparisons test was carried out using Graphpad Prism software, **** denotes two tailed P value of < 0.0001.
Liposome binding studies: triplicate experiments were carried out with protein from different preparations. To normalise the data the amount of protein in the supernatant and pellet of each sample was added together to give a value for 100%, and then the % in either the supernatant or pellet alone was calculated. Mean ± SD is shown n = 6. Sîdák’s multiple comparisons test was carried out using Graphpad Prism software, **** denotes two tailed P value of < 0.0001.

[7] = molecular target: Las17 PPR-N fragment (residues 300-422); assay: Biolayer Interferometry (BLI), Sla1 SH3 domains to Las17 PPR-N; format: binding, Saccharomyces cerevisiae; settings: Biolayer Interferometry, Octet R2, Las17 (aa 300-422); three repeats with newly prepared protein; read-out: binding affinity (Kd)
Excerpt: To investigate binding characteristics of the SH3 domains further, Sla1 SH3 protein domains were purified. Three Sla1 SH3 single domains, tandem domains Sla1 SH3#1&2, Sla1 SH3#1&2 W108A (in which the W108A mutation prevents proline motif binding by SH3#2 but not SH3#1) and a fragment with all three SH3 domains were expressed recombinantly and purified. […] This outcome is in line with original research of Rodal and colleagues and with more recent studies of avidity developed by Williamson, which highlighted the importance of tandem binding SH3 domains[13],[27].
Biolayer Interferometry (BLI) assays were performed using an OctetⓇ R2 (Sartorius). Protein samples were placed into the wells of a polystyrene plate (ProxiPlateTM, Perkin Elmer) and binding measured either with Octet NTA Biosensors or Octet GST Biosensors. Screening assays were performed to determine the optimum loading concentration and time for each binding pair to ensure that the probe was not saturated. All experiments were repeated three times, each time with newly prepared protein. Analysis and visualisation were performed using GraphPad Prism 10.0.2.

Molecule: Sla1 SH3#3: SH3#3 (aa 354-413) (SKKRGIVQYDFMAESQDELTIKSGDKVYILDDKKSKDWWMCQLVDSGKSGLVPAQFIEPV; also: 15N-labelled)
- binding to Las17 peptide spots [1]: strongest binding for peptides in proline tracts 1 and 3
- inhibition of actin polymerisation activity [2]: not

Molecule: wt: wild type cells with Las17-GFP and Arc15-mCherry
- lifetime, GFP alone [3]: 20 (3×) and 22 (4×) and 18 (2×) and 28 and 24 and 26 (2×)
- lifetime, GFP and RFP [3]: 30 and 44 and 36 and 32 (4×)
- lifetime, RFP [3]: 34 and 48 and 44 and 36 (3×) and 46

B1: Sla1 SH3#1 (aa 3-68) (domain or fragment, S. cerevisiae, UniProt P32790 3-68, looked up)
chain: VFLGIYRAVYAYEPQTPEELAIQEDDLLYLLQKSDIDDWWTVKKRVIGSDSEEPVGLVPSTYIEEA
notes: Sla1, S. cerevisiae, first SH3 domain, residues 3-68; also called Sla1 SH3 domain 1; source: E. coli, purified (GST fusion, GST removed with thrombin; His-tagged Sla1-SH3 domains were also made)
- Kd [4]: 7.5 µM

B2: Sla1 SH3#1: Sla1 SH3#1 (aa 3-68) (protein)
chain: VFLGIYRAVYAYEPQTPEELAIQEDDLLYLLQKSDIDDWWTVKKRVIGSDSEEPVGLVPSTYIEEA
modifications: left off: GST, end not stated, kept
- binding to Las17 peptide spots [1]: preference for sequences in the Las17 proline tracts 2 and 3
- inhibition of actin polymerisation activity [2]: about 80%

B3: Las17 peptide p3 (PP3 motif) (peptide)
peptide: LPAQTGRRGPAPPPPPRASRPTP
notes: Las17, S. cerevisiae, third PP motif; also called peptide 3; source: synthetic peptide (GenScript Biotech, UK)
- Kd at site SH3#1 [5]: ~24 µM
- Kd at site SH3#2 [5]: ~190 µM

B4: GST-Sla1 SH3#1-3: GST-tagged Sla1 SH3#1-3 containing the predicted PH domain (protein, UniProt P32790 5-413, looked up, fragment)
chain: LGIYRAVYAYEPQTPEELAIQEDDLLYLLQKSDIDDWWTVKKRVIGSDSEEPVGLVPSTYIEEAPVLKKVRAIYDYEQVQNADEELTFHENDVFDVFDDKDADWLLVKSTVSNEFGFIPGNYVEPENGSTSKQEQAPAAAEAPAATPAAAPASAAVLPTNFLPPPQHNDRARMMQSKEDQAPDEDEEGPPPAMPARPTATTETTDATAAAVRSRTRLSYSDNDNDDEEDDYYYNSNSNNVGNHEYNTEYHSWNVTEIEGRKKKKAKLSIGNNKINFIPQKGTPHEWSIDKLVSYDNEKKHMFLEFVDPYRSLELHTGNTTTCEEIMNIIGEYKGASRDPGLREVEMASKSKKRGIVQYDFMAESQDELTIKSGDKVYILDDKKSKDWWMCQLVDSGKSGLVPAQFIEPV
modifications: GST tag
notes: GST-tagged Sla1 SH3#1-3 containing the predicted PH domain
- liposome co-sedimentation ([6]; 20 μM Sla1, buffer B, room temperature 15 min, 250,000 × g): co-precipitates with liposomes
- liposome co-sedimentation ([6]; - lipid, replicate 1): 0
- liposome co-sedimentation ([6]; - lipid, replicate 2): 11.5044
- liposome co-sedimentation ([6]; - lipid, replicate 3): 0
- liposome co-sedimentation ([6]; - lipid, replicate 4): 2.9
- liposome co-sedimentation ([6]; - lipid, replicate 5): 3
- liposome co-sedimentation ([6]; - lipid, replicate 6): 5

B5: Sla1 SH3 1&2-W108A: W108A mutation prevents proline motif binding by SH3#2 but not SH3#1 (protein, UniProt P32790 5-131, looked up, variant W108A)
chain: LGIYRAVYAYEPQTPEELAIQEDDLLYLLQKSDIDDWWTVKKRVIGSDSEEPVGLVPSTYIEEAPVLKKVRAIYDYEQVQNADEELTFHENDVFDVFDDKDADALLVKSTVSNEFGFIPGNYVEPEN
- Kd [7]: 7.4 µM

B6: Las17 peptide p1 (PP1 motif) (peptide)
peptide: RNNRPVPPPPPMRTTTEGSGVR
notes: Las17, S. cerevisiae, first PP motif; also called peptide 1; source: synthetic peptide (GenScript Biotech, UK)
- Kd at site SH3#1 [5]: ~70 µM
- Kd at site SH3#2 [5]: ~550 µM

B7: Sla1 SH3#3 (aa 354-413) (domain or fragment, S. cerevisiae, UniProt P32790 354-413, looked up)
chain: SKKRGIVQYDFMAESQDELTIKSGDKVYILDDKKSKDWWMCQLVDSGKSGLVPAQFIEPV
modifications: also: 15N-labelled
notes: Sla1, S. cerevisiae, third SH3 domain, residues 354-413; also called Sla1 SH3 domain 3; source: E. coli, purified (GST fusion, GST removed with thrombin; His-tagged Sla1-SH3 domains were also made); 15N-labelled for NMR
- Kd [4]: 16 µM

— publication PMC12081870 (Communications Biology, 2025)
